These results are taken from IntAct's records for PubMed 31515488.

Sequences and labels used below:
B1: Protein FAM9B (Homo sapiens), Q8IZU0 (parent)
chain: MAAWGKKHAGKDPVRDECEERNRFTETREEDVTDEHGEREPFAETDEHTGANTKKPEDTAEDLTAKRKRMKMDKTCSKTKNKSKHALRKKQLKRQKRDYIHSLKLLNVLEEYITDEQKEEEEEEGEEEELIRIFQEQQKKWQQYRSVRRERLKEMKLLRDQFVKALEDFEDLCDRVFSDEDSELDN
partner: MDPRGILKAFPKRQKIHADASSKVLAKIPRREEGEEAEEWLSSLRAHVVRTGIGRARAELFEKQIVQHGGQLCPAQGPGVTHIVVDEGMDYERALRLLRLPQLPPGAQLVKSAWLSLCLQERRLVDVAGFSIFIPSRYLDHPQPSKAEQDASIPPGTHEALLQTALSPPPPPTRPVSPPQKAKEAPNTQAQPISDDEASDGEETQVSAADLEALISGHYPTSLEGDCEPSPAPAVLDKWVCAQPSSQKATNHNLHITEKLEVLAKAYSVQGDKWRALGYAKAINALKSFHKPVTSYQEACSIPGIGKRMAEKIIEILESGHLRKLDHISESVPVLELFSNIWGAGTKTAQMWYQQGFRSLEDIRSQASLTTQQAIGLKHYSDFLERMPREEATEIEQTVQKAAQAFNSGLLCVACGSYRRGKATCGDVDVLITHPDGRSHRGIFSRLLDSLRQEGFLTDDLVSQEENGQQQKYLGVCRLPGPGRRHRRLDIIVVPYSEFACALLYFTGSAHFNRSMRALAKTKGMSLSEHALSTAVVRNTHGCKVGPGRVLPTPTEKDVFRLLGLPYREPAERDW
B2: G-patch domain and KOW motifs-containing protein (Homo sapiens), Q92917 (parent)
chain: MADSKEGVLPLTAASTAPISFGFTRTSARRRLADSGDGAGPSPEEKDFLKTVEGRELQSVKPQEAPKELVIPLIQNGHRRQPPARPPGPSTDTGALADGVVSQAVKELIAESKKSLEERENAGVDPTLAIPMIQKGCTPSGEGADSEPRAETVPEEANYEAVPVEAYGLAMLRGMGWKPGEGIGRTFNQVVKPRVNSLRPKGLGLGANLTEAQALTPTGPSRMPRPDEEQEKDKEDQPQGLVPGGAVVVLSGPHRGLYGKVEGLDPDNVRAMVRLAVGSRVVTVSEYYLRPVSQQEFDKNTLDLRQQNGTASSRKTLWNQELYIQQDNSERKRKHLPDRQDGPAAKSEKAAPRSQHWLHRDLRVRFVDNMYKGGQYYNTKMIIEDVLSPDTCVCRTDEGRVLEGLREDMLETLVPKAEGDRVMVVLGPQTGRVGHLLSRDRARSRALVQLPRENQVVELHYDAICQYMGPSDTDDD
partner: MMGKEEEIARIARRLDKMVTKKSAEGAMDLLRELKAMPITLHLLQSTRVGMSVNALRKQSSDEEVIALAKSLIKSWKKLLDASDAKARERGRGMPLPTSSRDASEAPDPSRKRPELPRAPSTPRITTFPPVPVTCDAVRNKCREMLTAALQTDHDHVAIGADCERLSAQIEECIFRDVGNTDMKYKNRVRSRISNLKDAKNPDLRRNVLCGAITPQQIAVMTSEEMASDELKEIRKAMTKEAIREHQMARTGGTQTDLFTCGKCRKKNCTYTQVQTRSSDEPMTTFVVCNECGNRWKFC
B3: E3 ubiquitin-protein ligase LNX (Homo sapiens), Q8TBB1 (parent)
chain: MNQPESANDPEPLCAVCGQAHSLEENHFYSYPEEVDDDLICHICLQALLDPLDTPCGHTYCTLCLTNFLVEKDFCPMDRKPLVLQHCKKSSILVNKLLNKLLVTCPFREHCTQVLQRCDLEHHFQTSCKGASHYGLTKDRKRRSQDGCPDGCASLTATAPSPEVSAAATISLMTDEPGLDNPAYVSSAEDGQPAISPVDSGRSNRTRARPFERSTIRSRSFKKINRALSVLRRTKSGSAVANHADQGRENSENTTAPEVFPRLYHLIPDGEITSIKINRVDPSESLSIRLVGGSETPLVHIIIQHIYRDGVIARDGRLLPGDIILKVNGMDISNVPHNYAVRLLRQPCQVLWLTVMREQKFRSRNNGQAPDAYRPRDDSFHVILNKSSPEEQLGIKLVRKVDEPGVFIFNVLDGGVAYRHGQLEENDRVLAINGHDLRYGSPESAAHLIQASERRVHLVVSRQVRQRSPDIFQEAGWNSNGSWSPGPGERSNTPKPLHPTITCHEKVVNIQKDPGESLGMTVAGGASHREWDLPIYVISVEPGGVISRDGRIKTGDILLNVDGVELTEVSRSEAVALLKRTSSSIVLKALEVKEYEPQEDCSSPAALDSNHNMAPPSDWSPSWVMWLELPRCLYNCKDIVLRRNTAGSLGFCIVGGYEEYNGNKPFFIKSIVEGTPAYNDGRIRCGDILLAVNGRSTSGMIHACLARLLKELKGRITLTIVSWPGTFL
partner: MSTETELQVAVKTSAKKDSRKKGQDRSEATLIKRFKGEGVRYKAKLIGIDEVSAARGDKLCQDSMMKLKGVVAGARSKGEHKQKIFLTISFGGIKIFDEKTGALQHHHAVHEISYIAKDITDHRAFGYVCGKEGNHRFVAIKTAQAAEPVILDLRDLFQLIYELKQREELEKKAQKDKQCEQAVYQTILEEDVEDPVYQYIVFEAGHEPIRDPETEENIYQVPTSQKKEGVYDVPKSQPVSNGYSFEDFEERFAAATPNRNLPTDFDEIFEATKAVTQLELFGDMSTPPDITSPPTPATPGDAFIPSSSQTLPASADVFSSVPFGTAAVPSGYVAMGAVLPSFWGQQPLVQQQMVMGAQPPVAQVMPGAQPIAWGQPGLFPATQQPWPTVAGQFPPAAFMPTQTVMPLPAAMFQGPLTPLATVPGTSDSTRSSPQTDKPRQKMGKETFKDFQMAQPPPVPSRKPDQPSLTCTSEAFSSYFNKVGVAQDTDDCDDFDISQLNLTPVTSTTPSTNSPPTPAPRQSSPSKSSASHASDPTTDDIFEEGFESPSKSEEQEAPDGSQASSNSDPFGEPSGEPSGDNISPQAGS

The variants in one assay derive from B1. The settings on record: with dpoll_human POLL.
As to R23H, the “effect of a mutation on the interaction” value is on record as “with no effect”.

In another assay the parent is B2. The settings on record: with tcea2_human TCEA2, Q15560.
Consider MADSKEGVLPLTAASTAPISFGFTRTSARRRLADSGDGAGPSPEEKDFLKTVEGRELQSVKPQEAPKELVIPLIQNGHRRQPPARPPGPSTDTGALADGVVSQAVKELIAESKKSLEERENAGVDPTLAIPMIQKGCTPSGEGADSEPRAETVPEEANYEAVPVEAYGLAMLRGMGWKPGEGIGRTFNQVVKPRVNSLRPKGLGLGANLTEAQALTPTGPSRMPRPDEEQEKDKEDQPQGLVPGGAVVVLSGPHRGLYGKVEGLDPDNVRAMVRLAVGSRVVTVSEYYLRPVSQQEFDKNTLDLRQQNGTASSRKTLWNQELYIQQDNSERKRKHLPDRQDGPAAKSEKAAPRSQHWLHRDLRVRFVDNMYKGGQYYNTKMIIEDVLSPDTCACRTDEGRVLEGLREDMLETLVPKAEGDRVMVVLGPQTGRVGHLLSRDRARSRALVQLPRENQVVELHYDAICQYMGPSDTDDD [V393A], for which the “effect of a mutation on the interaction” value is recorded as “with no effect”. As for MADSKEGVLPLTAASTAPISFGFTRTSARRRLADSGDGAGPSPEEKDFLKTVEGRELQSVKPQEAPKELVIPLIQNGHRRQPPARPPGPSTDTGALADGVVSQAVKELIAESKKSLEERENAGVDPTLTIPMIQKGCTPSGEGADSEPRAETVPEEANYEAVPVEAYGLAMLRGMGWKPGEGIGRTFNQVVKPRVNSLRPKGLGLGANLTEAQALTPTGPSRMPRPDEEQEKDKEDQPQGLVPGGAVVVLSGPHRGLYGKVEGLDPDNVRAMVRLAVGSRVVTVSEYYLRPVSQQEFDKNTLDLRQQNGTASSRKTLWNQELYIQQDNSERKRKHLPDRQDGPAAKSEKAAPRSQHWLHRDLRVRFVDNMYKGGQYYNTKMIIEDVLSPDTCVCRTDEGRVLEGLREDMLETLVPKAEGDRVMVVLGPQTGRVGHLLSRDRARSRALVQLPRENQVVELHYDAICQYMGPSDTDDD [A129T], the “effect of a mutation on the interaction” value is “with no effect”.

The variants in the next assay derive from B3. The following applies: with dab1_human DAB1, O75553.
With R342H, the “effect of a mutation on the interaction” value is “with no effect”.
